Data: US20170204184A1 (CB THERAPEUTICS, published 2017)

Columns and labels:
[1] = target: T1, biotinylated human PD-L1-mFc (human, biotinylated (sites not given)); assay: competition ELISA: blocks PD-L1-mFc-biotin binding to coated PD-1-hFc
T1 construct: also called PDL-1-mFc-biotin
Protocol: The wells were aspirated and non-specific binding sites were blocked by adding 200 μL of blocking buffer (PBS with 1% (w/v) of bovine serum albumin (BSA, Roche, Cat No:738328)) and incubating for 1 hour at 37° C. After the plate was washed three times with wash buffer (PBS with 0.05% (v/v) Tween20 (Sigma, Cat No:P1379)), 100 μL/well of 1:3 serial dilutions of hybridoma (FIG. 4), chimeric (FIG. 5), or humanized (FIG. 6) anti-PD-L1 antibodies in blocking buffer (starting from 20 μg/mL) were added and incubated at 37° C. for 1 hour. […] After the plate was washed 3 times, secondary antibody (Avidin HRP eBioscience cat No.: E07418-1632, 1:500, 100 μl/well) was added and incubated at 37° C. for 0.5 hour. After the plate was washed, 100 μL/well of substrate solution TMB (eBioscience, Cat No: 00-4201-56) was added and the plate was incubated for 3min at room temperature. 100 μL/well of stop solution (2N H₂SO₄) was added to stop the reaction. The colorimetric signals were developed and read at 450 nm using an Auto Plate SpectraMax Plus (Supplier: Moleculer Devices; Model: MNR0643; Software: SoftMax Pro v5.4). Data were analyzed using GraphPad Prism 5 and IC50 was calculated (FIGS. 4-6; Tables 8-10).

PD-L1 on 293T cells [2] = target: T2, PD-L1 on 293T cells (UniProt Q9NZQ7 19-290); assay: flow cytometry on PD-L1-293T cells
T2 construct: whole, on cells; also called PD-L1-293T; 293T-PD-L1 cells
Protocol: Cell binding analyses of anti-PD-L1 antibodies were performed based on binding to a 293T cell line stably expressing PD-L1 (PD-L1-293T). 2×10⁵ 293T-PD-L1 cells were added into each well of 96-well culture plates and incubated with the indicated antibody (20 μg/ml with the dilution of 1:5) at 4° C. for 1 h. After the cells were washed three times with FACS buffer, the secondary antibody (PE Goat anti-mouse: 1:200; PE mouse anti-human: 1:10) was added to the cells at 100 μl/well, and incubated at 4° C. for 40 min. Cells were washed three times with FACS buffer and analyzed by FACS Array.

hPD-L1-mFc = target: T3, hPD-L1-mFc (human); assay: ELISA, coated PD-L1-mFc
T3 construct: it may hold a signal peptide; also called human PD-L1-mFc; PD-L1-mFc (Crownbio)
Protocol: ELISA binding analyses were conducted based on human PD-L1-mFc (for chimeric and humanized antibody detection) and PD-L1-hFc protein (for hybridoma antibody detection). 96-well plates (Costar, Cat No: 9018) were coated with 100 μL of 2 μg/ml PD-L1-mFc (Crownbio) in coating buffer PBS (Hyclone, Cat No: SH30256.01B) overnight at 4° C. The wells were aspirated and non-specific binding sites were blocked by adding 200 μL of blocking buffer (PBS with 1% (w/v) of bovine serum albumin (BSA, Roche, Cat No:738328)) and incubating for 1 hour at 37° C. After the plates were washed three times with wash buffer (PBS with 0.05% (v/v) Tween20 (Sigma, Cat No:P1379)), 100 μL/well of 1:10 serial dilutions of hybridoma (FIG. 1), chimeric (FIG. 2), or humanized (FIG. 3) anti-PD-L1 antibodies in blocking buffer (starting from 20 μg/mL) were added and incubated at room temperature for 1 hour. The plates were washed and incubated with 100 μL/well of Goat anti-Mouse IgG (H+L) (Thermo, Cat No: 31432) in blocking buffer for 60 min. After the plates were washed, 100 μL/well of substrate solution TMB (eBioscience, Cat No: 00-4201-56) were added and the plates were incubated for 2 min at room temperature. 100 μL/well of stop solution (2N H₂SO₄) was added to stop the reaction. The colorimetric signals were developed and read at 450 nm using an Auto Plate SpectraMax Plus (Supplier: Moleculer Devices; Model: MNR0643; Software: SoftMax Pro v5.4). Data were analyzed using GraphPad Prism 5 and EC50 was calculated (FIGS. 1-3; Tables 5-7).

PD-L1 on 293T cells [3] = target: T2, PD-L1 on 293T cells; assay: flow cytometry competition: blocks biotin-labeled PD-1 binding to PD-L1-293T cells
Protocol: Briefly, PD-L1-293T cells were suspended in FACS buffer (PBS with 3% fetal calf serum). Various concentrations of the hybridoma (FIG. 10), chimeric (FIG. 11), or humanized (FIG. 12) anti-PD-L1 antibodies were added to the cell suspension and incubated at 4° C. for 60 minutes in 96 well plates. […] The cells were washed 3 times with PBS and incubated with mouse anti-biotin PE (Biolegend, cat# 409004). The cell-associated fluorescence was then detected by flow cytometry analysis using FACS array.

cynomolgus PD-L1 = target: T4, cynomolgus PD-L1 (cynomolgus, UniProt G7PSE7 19-238); assay: SPR (Biacore 3000), antibody captured, PD-L1 as analyte, 1:1 fit
T4 construct: also called Cyno-PD-L1; cyno-PD-L1; not shown: Any tag or Fc carrier on the soluble cynomolgus PD-L1 analyte
Protocol: (§1) The binding kinetics between PD-L1 and PD-L1 antibodies were measured by Biacore analysis, which was performed at 25° C. on a Biacore3000 instrument and recorded with a data collection rate of 1 Hz. Polyclonal rabbit anti-mouse IgG (GE, BR-1008-38) was diluted with 10 mM pH 5.0 sodium acetate and immobilized onto reference and experiment flow cells of a CM5 biosensor chip to around 15000 RU using an amine coupling kit (GE, BR10050). […] PD-L1 analyte series were prepared by diluting the stocks with running buffer to 100 nM followed by 2× serial dilution in the same buffer down to 0.78 nM. Analytes were injected in series over the reference and experiment flow cells for 3 minutes at a flow rate of 30 μL/minute. Running buffer (PBS with 0.05% P20) was allowed to flow over for 10 minutes at a flow rate of 30 μL/minute. At the end of each cycle, the biosensor surface was regenerated with 3 minutes injection of 10 mM pH1.7 Glycine-HCl buffer at a flow rate of 10 μL/minute. For each analyte sample injection (i.e. each cycle), binding responses obtained from the experimental biosensor surface were double referenced by subtracting simultaneously recorded responses from the reference surface followed by additional subtraction of responses from a single referenced running buffer sample. The association and dissociation rate constants (ka and kd) were determined simultaneously by fitting double-referenced sensorgrams of the entire titration series to Langmuir model (1:1) using Biaevaluation 4.0 software. The dissociation constant, KD, was calculated from the determined rate constants by the relation KD=kd/ka.

Human PD-L1 = target: T5, Human PD-L1 (human, UniProt Q9NZQ7 19-238, limits assumed); assay: as above
T5 construct: also called PD-L1 analyte (Biacore); hPD-L1
Protocol: as §1

Binder | IC50 [1] [µg/mL] | EC50 (PD-L1 on 293T cells [2]) [µg/mL] | EC50 (hPD-L1-mFc) [µg/mL] | IC50 (PD-L1 on 293T cells [3]) [µg/mL] | Kd (cynomolgus PD-L1) [nM] | Kd (Human PD-L1) [nM]
ch8H4-hIgG4 (antibody, V domains shown, Mouse-human chimeric IgG4 (F234A/L235A), human kappa; also called Chimeric 8H4-IgG4 (F234A/L235A); chimeric 8H4-hIgG4) VH: EVKLVESGGGLVKPGGSLKLSCAASGFTFRSYGMSWARQIPEKRLEWVASISSGGTTYYLGSVQGRFTISRDNARNILYLQMSSLRSEDTAMYYCARGYDAGFAYWGQGTLVSVSS VL: DIVLTQSPASLAVSLGQRATISCRASQSVSTSSYSYMHWYQQKPGQPPKLLIKYASNLESGVPARFSGSGSGTDFTLNIHPVEEEDTATYYCQNSWEIPYTFGGGTKLEIKR | 0.848 | – | 0.134 | 0.042 | – | –
ch5G11-hIgG1 (antibody, Mouse-human chimeric IgG1 (D265A), human kappa; also called Chimeric 5G11-IgG1 (D265A); ch-5G11-IgG1) heavy: not shown light: SIVMTQTPKFLLVSAGDRVTITCKASQSVSNDVAWYQQKPGQSPKLLIYYAANRYTGVPDRFTGSGYGTDFTFTISIVQAEDLAVYFCQQDYTSPYTFGGGTKLEIKRTVAAPSVFIFPPSDEQLKSGTASVVCLLNNFYPREAKVQWKVDNALQSGNSQESVTEQDSKDSTYSLSSTLTLSKADYEKHKVYACEVTHQGLSSPVTKSFNRGEC | 1.01 | 0.0583 | 0.0821 | 0.0404 | – | –
ch5G11-hIgG4 (antibody, Mouse-human chimeric IgG4 (F234A/L235A), human kappa; also called Chimeric 5G11-IgG4 (F234A/L235A); ch-5G11-IgG4) heavy: not shown light: SIVMTQTPKFLLVSAGDRVTITCKASQSVSNDVAWYQQKPGQSPKLLIYYAANRYTGVPDRFTGSGYGTDFTFTISIVQAEDLAVYFCQQDYTSPYTFGGGTKLEIKRTVAAPSVFIFPPSDEQLKSGTASVVCLLNNFYPREAKVQWKVDNALQSGNSQESVTEQDSKDSTYSLSSTLTLSKADYEKHKVYACEVTHQGLSSPVTKSFNRGEC | 0.926 | 0.0897 | 0.09 | 0.0332 | – | –
ch8C6-hIgG4 (antibody, V domains shown, Mouse-human chimeric IgG4 (F234A/L235A), human kappa; also called Chimeric 8C6-IgG4 (F234A/L235A); chimeric 8C6-hIgG4) VH: QVQLKQSGPGLVQPSQSLSITCTVSGFSLTSYGVHWVRQSPGKGLEWLGVIWSGGVTDYNAAFISRLSISKDNSKSQVFFKMNSLQANDTAIYYCARLGFYAMDYWGQGTSVTVSS VL: SIVMTQTPKFLLVSAGDRVTITCKASQSVSNDVGWYQQKPGQSPKLLIYYASNRYSGVPDRFTGSGYGTDFTFTISTVQAEDLAVYFCQQDYTSPYTFGGGTKLEIKR | 0.477 | – | 0.076 | 0.0349 | – | –

Next, values leading:

IC50 [1] [µg/mL] | EC50 (PD-L1 on 293T cells [2]) [µg/mL] | EC50 (hPD-L1-mFc) [µg/mL] | IC50 (PD-L1 on 293T cells [3]) [µg/mL] | Kd (cynomolgus PD-L1) [nM] | Kd (Human PD-L1) [nM] | Binder
1.2 | 0.08 | 0.0856 | 0.0185 | – | – | hu13C5-hIgG1 (antibody, Humanized IgG1 with D265A; also called Humanized 13C5-IgG1 (D265A); hu-13C5-IgG1) heavy: not shown light: DIVLTQSPASLAVSPGQRATITCRASQSVSTSSSSFMHWYQQKPGQPPKLLIKYASNLESGVPARFSGSGSGTDFTLTINPVEANDTANYYCQHSWEIPYTFGQGTKLEIKRTVAAPSVFIFPPSDEQLKSGTASVVCLLNNFYPREAKVQWKVDNALQSGNSQESVTEQDSKDSTYSLSSTLTLSKADYEKHKVYACEVTHQGLSSPVTKSFNRGEC
1.19 | 0.0804 | 0.127 | 0.0499 | – | – | hu13C5-hIgG4 (antibody, Humanized IgG4 with F234A and L235A; also called Humanized 13C5-IgG4 (F234A/L235A); hu-13C5-IgG4) heavy: not shown light: DIVLTQSPASLAVSPGQRATITCRASQSVSTSSSSFMHWYQQKPGQPPKLLIKYASNLESGVPARFSGSGSGTDFTLTINPVEANDTANYYCQHSWEIPYTFGQGTKLEIKRTVAAPSVFIFPPSDEQLKSGTASVVCLLNNFYPREAKVQWKVDNALQSGNSQESVTEQDSKDSTYSLSSTLTLSKADYEKHKVYACEVTHQGLSSPVTKSFNRGEC
– | – | – | – | 2.43 | 1.74 | hu13C5 (antibody) VH: EVQLVESGGGLVKPGGSLRLSCAASGFIFRSYGMSWVRQAPGKGLEWVASISSGGSTYYPDSVKGRFTISRDNAKNSLYLQMNSLRAEDTAVYDCARGYDSGFAYWGQGTLVTVSS light: DIVLTQSPASLAVSPGQRATITCRASQSVSTSSSSFMHWYQQKPGQPPKLLIKYASNLESGVPARFSGSGSGTDFTLTINPVEANDTANYYCQHSWEIPYTFGQGTKLEIKRTVAAPSVFIFPPSDEQLKSGTASVVCLLNNFYPREAKVQWKVDNALQSGNSQESVTEQDSKDSTYSLSSTLTLSKADYEKHKVYACEVTHQGLSSPVTKSFNRGEC
0.794 | 0.0479 | 0.0495 | 0.0165 | – | – | hu5G11-hIgG1 (antibody, Humanized IgG1 with D265A; also called Humanized 5G11-IgG1 (D265A); hu-5G11-IgG1) heavy: not shown light: DIQMTQSPSSLSASVGDRVTITCKASQSVSNDVAWYQQKPGKAPKLLIYYAANRYTGVPDRFSGSGYGTDFTFTISSLQPEDIATYFCQQDYTSPYTFGQGTKLEIKRTVAAPSVFIFPPSDEQLKSGTASVVCLLNNFYPREAKVQWKVDNALQSGNSQESVTEQDSKDSTYSLSSTLTLSKADYEKHKVYACEVTHQGLSSPVTKSFNRGEC
0.823 | 0.0543 | 0.0699 | 0.0096 | – | – | hu5G11-hIgG4 (antibody, Humanized IgG4 with F234A and L235A; also called Humanized 5G11-IgG4 (F234A/L235A); hu-5G11-IgG4) heavy: not shown light: DIQMTQSPSSLSASVGDRVTITCKASQSVSNDVAWYQQKPGKAPKLLIYYAANRYTGVPDRFSGSGYGTDFTFTISSLQPEDIATYFCQQDYTSPYTFGQGTKLEIKRTVAAPSVFIFPPSDEQLKSGTASVVCLLNNFYPREAKVQWKVDNALQSGNSQESVTEQDSKDSTYSLSSTLTLSKADYEKHKVYACEVTHQGLSSPVTKSFNRGEC
– | – | – | – | 0.275 | 0.225 | hu5G11 (antibody) VH: QITLKESGPTLVKPTQTLTLTCTVSGFSLSTYGVHWIRQPPGKALEWLGVIWRGVTTDYNAAFMSRLTITKDNSKNQVVLTMNNMDPVDTATYYCARLGFYAMDYWGQGTLVTVSS light: DIQMTQSPSSLSASVGDRVTITCKASQSVSNDVAWYQQKPGKAPKLLIYYAANRYTGVPDRFSGSGYGTDFTFTISSLQPEDIATYFCQQDYTSPYTFGQGTKLEIKRTVAAPSVFIFPPSDEQLKSGTASVVCLLNNFYPREAKVQWKVDNALQSGNSQESVTEQDSKDSTYSLSSTLTLSKADYEKHKVYACEVTHQGLSSPVTKSFNRGEC
